{"source": "patent US20140056903A1", "about": "(Regeneron, published 2014)", "key": {"[1]": {"target": "T1, human GFRα3 expressed with a C-terminal myc-myc-hexahistidine tag (human, UniProt O60609 32-374, biotinylated (sites not given) in ELISA format 2 and in the Octet cross-competition; not in SPR)", "T1 construct": "also called hGFRα3-mmh; hGFRα3-mmH", "T1 sequence (O60609 other isoform, or with tags, fused parts or gaps limits assumed)": "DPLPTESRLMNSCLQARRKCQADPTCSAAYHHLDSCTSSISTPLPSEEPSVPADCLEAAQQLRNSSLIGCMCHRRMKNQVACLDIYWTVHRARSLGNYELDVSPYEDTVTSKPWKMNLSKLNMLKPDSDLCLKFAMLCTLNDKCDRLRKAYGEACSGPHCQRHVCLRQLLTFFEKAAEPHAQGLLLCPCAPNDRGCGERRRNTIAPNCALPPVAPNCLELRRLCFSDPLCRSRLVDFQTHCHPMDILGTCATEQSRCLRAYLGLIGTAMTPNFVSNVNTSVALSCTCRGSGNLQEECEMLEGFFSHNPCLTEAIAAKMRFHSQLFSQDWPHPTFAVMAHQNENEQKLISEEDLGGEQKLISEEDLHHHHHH", "assay": "SPR, Ab captured, 37C", "outline": "(§1)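 Antibodies captured on anti-mouse or anti-human IgG CM5 surfaces, in HBS-EP or PBS-P20 at pH 7.4. mmh-tagged GFRα3 injected at 200–7.4 nM and Fc-tagged at 100–3.7 nM, with association up to 4 min and dissociation up to 20 min. Data fitted 1:1; KD=kd/ka, t1/2=ln2/(60*kd).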"}, "[2]": {"target": "T2, human GFRα3 expressed with a C-terminal mFc tag (human)", "T2 construct": "also called hGFRα3-mFc", "T2 chain": "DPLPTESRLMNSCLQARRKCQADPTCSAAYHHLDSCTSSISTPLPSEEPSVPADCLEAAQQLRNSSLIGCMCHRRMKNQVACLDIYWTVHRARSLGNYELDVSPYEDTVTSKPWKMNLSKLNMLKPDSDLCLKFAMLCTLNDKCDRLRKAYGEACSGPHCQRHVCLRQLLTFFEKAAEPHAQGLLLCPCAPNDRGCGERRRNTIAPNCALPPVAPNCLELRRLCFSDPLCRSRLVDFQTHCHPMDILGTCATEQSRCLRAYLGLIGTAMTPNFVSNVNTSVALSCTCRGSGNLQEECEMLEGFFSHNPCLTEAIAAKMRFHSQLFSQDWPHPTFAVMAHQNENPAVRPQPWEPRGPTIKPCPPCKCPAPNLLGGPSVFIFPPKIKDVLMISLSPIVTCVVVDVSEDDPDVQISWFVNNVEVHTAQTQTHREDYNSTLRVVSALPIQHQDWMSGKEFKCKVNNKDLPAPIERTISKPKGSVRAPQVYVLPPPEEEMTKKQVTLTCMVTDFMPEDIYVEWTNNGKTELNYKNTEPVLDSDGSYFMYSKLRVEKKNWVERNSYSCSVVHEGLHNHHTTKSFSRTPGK", "assay": "SPR, Ab captured, 37C", "outline": "as §1"}, "[3]": {"target": "T3, monkey GFRα3 expressed with a C-terminal myc-myc-hexahistidine tag (monkey (Mf), UniProt O60609 32-374 (human entry), limits assumed)", "T3 construct": "also called MfGFRα3-mmh; MfGFRα3-mmH", "T3 chain": "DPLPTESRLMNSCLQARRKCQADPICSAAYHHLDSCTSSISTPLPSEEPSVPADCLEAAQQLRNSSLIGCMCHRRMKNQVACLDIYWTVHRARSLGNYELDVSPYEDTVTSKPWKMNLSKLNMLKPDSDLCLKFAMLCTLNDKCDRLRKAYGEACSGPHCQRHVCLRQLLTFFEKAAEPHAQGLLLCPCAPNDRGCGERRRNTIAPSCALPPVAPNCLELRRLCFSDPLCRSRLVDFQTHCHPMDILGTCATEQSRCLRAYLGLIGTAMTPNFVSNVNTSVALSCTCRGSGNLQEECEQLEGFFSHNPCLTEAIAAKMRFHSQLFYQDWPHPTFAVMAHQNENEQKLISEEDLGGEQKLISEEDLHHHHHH", "assay": "SPR, Ab captured, 37C", "outline": "as §1"}, "[4]": {"target": "T1, human GFRα3 expressed with a C-terminal …", "assay": "Octet cross-competition; biotin-hGFRα3-mmH pre-saturated with first antibody H4H2352S", "experimental": "A cross-competition assay was conducted to assess the ability of select antibodies to compete with one another for binding to human GFRα3 using an Octet RED384 biosensor (Fortebio Inc.). The entire experiment was performed at 25° C. with the flow rate of 1000 rpm in Octet HBST buffer (0.01 M HEPES pH7.4, 0.15M NaCl, 3 mM EDTA, 0.05% v/v Surfactant P20, 0.1 mg/mL BSA). To assess whether 2 antibodies were able to compete with one another for binding to their respective epitopes on biotinylated recombinant human GFRα3 expressed with a C-terminal myc-myc-hexahistidine tag (biotin-hGFRα3-mmH; SEQ ID:370), around ˜1.2 nm of biotin-hGFRα3-mmH was first captured onto streptavidin-coated Octet sensor tips (Fortebio Inc, #18-5019) by submerging the tips for 1 minute into a 10 μg/mL solution of biotin-hGFRα3-mmH. The antigen coated sensor tips were then placed into wells containing 25 μg/mL solution of a first anti-GFRα3 monoclonal antibody for 4 minutes to saturate the biotin-hGFRα3-mmH surface. The sensor tips were then subsequently dipped into wells containing 25 μ/mL solution of a second anti-GFRα3 monoclonal antibody. The sensor tips were washed in Octet HBST buffer in between every step of the experiment. The real-time binding response was monitored during the course of the experiment and the binding response at the end of every step was recorded as shown in FIG. 9. The response of mAb-2 binding to biotin-hGFRα3-mmH pre-complexed with the first antibody was compared and competitive/non-competitive behavior of different anti-GFRα3 monoclonal antibodies was determined."}}, "data": [{"binder": "H4H2352S (antibody, human IgG4, V domains shown, human IgG4 Fc (H4H); also called H4H2352S-1) VH: EVQLVQSGAEVKKPGASVKVSCKASGYTFTNYGITWVRQAPGQGLEWMGWISAYNGNTGYAQKFQGRVTMTTDTSTSTAYMELRSLRSDDTAVYYCAREDYDFWRAFDIWGQGTMVTVSS VL: EIVLTQSPGTLSLSPGERATLSCRASQSVSSTYLAWLQQKPGQAPRLLIYGASSRATGIPDRFSGSGSGTDFTLTINRLEPEDFAVYYCQQYAYSPYTFGQGTKLEIK", "values": [{"measurement": "Kd", "setting": "[1]", "result": 0.118, "unit": "nM"}, {"measurement": "koff", "setting": "[1]", "result": 0.000139, "unit": "s⁻¹"}, {"measurement": "kon", "setting": "[1]", "result": "1.18e+06", "unit": "M⁻¹ s⁻¹"}, {"measurement": "t1/2", "setting": "[1]", "result": 1.38, "unit": "h"}, {"measurement": "Kd", "setting": "[2]", "result": 0.0132, "unit": "nM"}, {"measurement": "koff", "setting": "[2]", "result": "3e-05", "unit": "s⁻¹"}, {"measurement": "kon", "setting": "[2]", "result": "2.28e+06", "unit": "M⁻¹ s⁻¹"}, {"measurement": "t1/2", "setting": "[2]", "result": 6.42, "unit": "h"}, {"measurement": "Kd", "setting": "[3]", "result": 0.117, "unit": "nM"}, {"measurement": "koff", "setting": "[3]", "result": "6.53e-05", "unit": "s⁻¹"}, {"measurement": "kon", "setting": "[3]", "result": 557000, "unit": "M⁻¹ s⁻¹"}, {"measurement": "t1/2", "setting": "[3]", "result": 2.95, "unit": "h"}, {"measurement": "binding response of second antibody (nm)", "setting": "[4]", "result": 0.1, "unit": "nm"}]}, {"binder": "H4H2292S (antibody, human IgG4, V domains shown, human IgG4 Fc (H4H)) VH: EVQLVESGGGVVQPGRSLRLSCAASGFTFSSYGMHWVRQAPGKGLEWVSFIWYDGSNKYYADSVKGRFTISRDNSKNTLYLQMNSLTAEDTAVYYCARRGILTGTTAFDIWGQGTMVTVSS VL: DIQMTQSPSSLSASVGDRVTITCRASQSISSYLNWYQQKPGKAPKLLIYAASSLQSGVPSRFSGSGSGTDFTLTIRSLIPEDFATYYCQQTYNTPFTFGPGTKVEIK", "values": [{"measurement": "Kd", "setting": "[1]", "result": 1.94, "unit": "nM"}, {"measurement": "koff", "setting": "[1]", "result": 0.000249, "unit": "s⁻¹"}, {"measurement": "kon", "setting": "[1]", "result": 128000, "unit": "M⁻¹ s⁻¹"}, {"measurement": "t1/2", "setting": "[1]", "result": 0.767, "unit": "h"}, {"measurement": "Kd", "setting": "[2]", "result": 0.0432, "unit": "nM"}, {"measurement": "koff", "setting": "[2]", "result": "2.57e-05", "unit": "s⁻¹"}, {"measurement": "kon", "setting": "[2]", "result": 596000, "unit": "M⁻¹ s⁻¹"}, {"measurement": "t1/2", "setting": "[2]", "result": 7.48, "unit": "h"}, {"measurement": "Kd", "setting": "[3]", "result": 2.18, "unit": "nM"}, {"measurement": "koff", "setting": "[3]", "result": 0.000195, "unit": "s⁻¹"}, {"measurement": "kon", "setting": "[3]", "result": 89500, "unit": "M⁻¹ s⁻¹"}, {"measurement": "t1/2", "setting": "[3]", "result": 0.983, "unit": "h"}, {"measurement": "binding response of second antibody (nm)", "setting": "[4]", "result": 0.15, "unit": "nm"}]}, {"binder": "H4H2350P (antibody, human IgG4, V domains shown, human IgG4 Fc (H4H)) VH: QVQLQESGPGLVKPSETLSLTCTVSGGSISTYYWSWFRQPPGKGLEWIGYIYYSGSTNHNPSLKSRVTISVDTSKNQFSLKLRSVTAADTAVYYCARVGPVGWGSWGNFDYWGQGTLVTVSS VL: DIQLTQSPSFLSASVGDRVTITCWASQGISSYLAWSQQKPGKAPKLLIYAASTLQSGVPSRFSGSGSGTEFTLTISSLQPEDFATYYCQQLNSYPWTFGQGTKVEIK", "values": [{"measurement": "Kd", "setting": "[1]", "result": 9.61, "unit": "nM"}, {"measurement": "koff", "setting": "[1]", "result": 0.00128, "unit": "s⁻¹"}, {"measurement": "kon", "setting": "[1]", "result": 134000, "unit": "M⁻¹ s⁻¹"}, {"measurement": "t1/2", "setting": "[1]", "result": 0.15, "unit": "h"}, {"measurement": "Kd", "setting": "[2]", "result": 0.0492, "unit": "nM"}, {"measurement": "koff", "setting": "[2]", "result": 0.000126, "unit": "s⁻¹"}, {"measurement": "kon", "setting": "[2]", "result": "2.56e+06", "unit": "M⁻¹ s⁻¹"}, {"measurement": "t1/2", "setting": "[2]", "result": 1.53, "unit": "h"}, {"measurement": "Kd", "setting": "[3]", "result": 12, "unit": "nM"}, {"measurement": "koff", "setting": "[3]", "result": 0.000896, "unit": "s⁻¹"}, {"measurement": "kon", "setting": "[3]", "result": 74800, "unit": "M⁻¹ s⁻¹"}, {"measurement": "t1/2", "setting": "[3]", "result": 0.217, "unit": "h"}, {"measurement": "binding response of second antibody (nm)", "setting": "[4]", "result": 1.43, "unit": "nm"}]}]}
